Data reported in PMC8509676, “Residual Helicity at the Active Site of the Histidine Phosphocarrier, HPr, Modulates Binding Affinity to Its Natural Partners” (International Journal of Molecular Sciences, 2021).

T1: Regulator of sigma D from Escherichia coli (Rsd^ec) (E. coli, UniProt P0AFX4 1-158)
T1 construct: Rsd (regulator of sigma D), anti-sigma factor of sigma 70, E. coli; 158-residue-long protein; called 'intact Rsd' in the abstract and 'wild-type Rsd vector' in the methods; Vector was a gift from Ann Hochschild; source: E. coli C41, purified as described [24,50]
T1 sequence (looked up): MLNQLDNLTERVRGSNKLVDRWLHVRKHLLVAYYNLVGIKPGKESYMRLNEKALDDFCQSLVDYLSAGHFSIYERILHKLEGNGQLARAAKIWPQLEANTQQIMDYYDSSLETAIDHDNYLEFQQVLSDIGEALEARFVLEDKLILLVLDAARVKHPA

B1: HPr^9–30 I21A peptide (peptide)
peptide: Ac-GWAEGLHARPASAFVRAATATG-NH2
notes: HPr of Streptomyces coelicolor, residues 9-30, with I21A; source: synthetic peptide, bought: NZYTech (purity >95%)
B2: HPr^9–30 P18A peptide (peptide)
peptide: Ac-GWAEGLHARAASIFVRAATATG-NH2
notes: HPr of Streptomyces coelicolor, residues 9-30, with P18A; source: synthetic peptide, bought: NZYTech (purity >95%)
B3: HPr^9–30 P18A/I21A/V23A peptide (peptide)
peptide: Ac-GWAEGLHARAASAFARAATATG-NH2
notes: HPr of Streptomyces coelicolor, residues 9-30, with P18A, I21A and V23A; also called triple-mutant; source: synthetic peptide, bought: NZYTech (purity >95%)

Target: T1, Regulator of sigma D from Escherichia …
Assay: ITC; Rsd^ec or EIN^sc (10–20 µM) in the cell, peptide (100–200 µM) in the syringe; 50 mM Tris, pH 7.0, 25 °C; single binding-site model, 1:1 stoichiometry assumed
Conditions: both partners purified

Binder | dH | Kd
B1 | 1 ± 0.4 kcal/mol | 
B2 | 1.1 ± 0.4 kcal/mol | 2200 ± 400 nM
B3 | 0.6 ± 0.4 kcal/mol | 2600 ± 400 nM
